Reference: patent US20230133381A1

B1: DA3 (antibody, V domains shown)
VH: EVQLVESGGGLVQPGGSLRLSCAASGFTFSSFNMLWVRQAPGKGLEWVAGIGKSDRYTGYGSAVKGRFTISRDTSKSTVYLQMNSLRAEDTAVYYCVRDAGSGCGSGGWTGACIDTWGQGTLVTVSS
VL: DIQMTQSPSSLSASVGDRVTITCSGGDSYAGSYYYGWYQQKPGKAPKTLIYNNNNRPSGVPSRFSGSTSGTDFTLTISSLQPEDFATYYCGSRDSSYVGIFGQGTKVEIK
B2: DA2 (antibody, V domains shown)
VH: EVQLVESGGGLVQPGGSLRLSCAASGFTFSSFNMLWVRQAPGKGLEWVAGIGKSDRYTGYGSAVKGRFTISRDDSKSTVYLQMNSLRAEDTAVYYCVRDAGSGCGSGGWTGACIDTWGQGTLVTVSS
VL: DIQMTQSPSSLSASVGDRVTITCSGGDSYAGSYYYGWYQQKPGKAPKTLIYNNNNRPSGVPSRFSGSRSGTDFTLTISSLQPEDFATYYCGSRDSSYVGIFGQGTKVEIK
B3: DA10 (antibody, V domains shown)
VH: EVQLVESGGGLVQPGGSLRLSCAASGFTFSSFNMLWVRQAPGKGLEWVAGIGKSDRYTGYGSAVKGRFTISRDTSKNTAYLQMNSLRAEDTAVYYCSRDAGSGCGSGGWTGACIDTWGQGTLVTVSS
VL: DIQMTQSPSSLSASVGDRVTITCSGGDSYAGSYYYGWYQQKPGKAPKTLIYNNNNRPSGVPSRFSGSRSGTDFTLTISSLQPEDFATYYCGSRDSSYVGIFGQGTKVEIK
B4: DA4 (antibody, V domains shown)
VH: EVQLVESGGGLVQPGGSLRLSCAASGFTFSSFNMLWVRQAPGKGLEWVAGIGKSDRYTGYGSAVKGRFTISRDDSKNTVYLQMNSLRAEDTAVYYCVRDAGSGCGSGGWTGACIDTWGQGTLVTVSS
VL: DIQMTQSPSSLSASVGDRVTITCSGGDSYAGSYYYGWYQQKPGKAPKTLIYNNNNRPSGVPSRFSGSTSGTDFTLTISSLQPEDFATYYCGSRDSSYVGIFGQGTKVEIK
B5: DA16 (antibody, V domains shown)
VH: EVQLVESGGGLVQPGGSLRLSCAASGFTFSSFNMLWVRQAPGKGLEWVAGIGKSDRYTGYGSAVKGRFTISRDTSKNTAYLQMNSLRAEDTAVYYCSRDAGSGCGSGGWTGACIDTWGQGTLVTVSS
VL: DIQMTQSPSSLSASVGDRVTITCSGGDSYAGSYYYGWYQQKPGKAPKTLIYNNNNRPSGVPSRFSGSRSGTDFTLTISSLQPEDFATYYCGSRDSSGAGGFGQGTKVEIK
B6: DA6 (antibody, V domains shown)
VH: EVQLVESGGGLVQPGGSLRLSCAASGFTFSSFNMLWVRQAPGKGLEWVAGIGKSDRYTGYGSAVKGRFTISRDDSKSTVYLQMNSLRAEDTAVYYCARDAGSGCGSGGWTGACIDTWGQGTLVTVSS
VL: DIQMTQSPSSLSASVGDRVTITCSGGDSYAGSYYYGWYQQKPGKAPKTLIYNNNNRPSGVPSRFSGSTSGTDFTLTISSLQPEDFATYYCGSRDSSYVGIFGQGTKVEIK
B7: DA12 (antibody, V domains shown)
VH: EVQLVESGGGLVQPGGSLRLSCAASGFTFSSFNMLWVRQAPGKGLEWVAGIGKSDRYTGYGSAVKGRFTISRDTSKNTAYLQMNSLRAEDTAVYYCSRDAGSGCGSGGWTGACIDTWGQGTLVTVSS
VL: DIQMTQSPSSLSASVGDRVTITCSGGDSYAGSYYYGWYQQKPGKAPKTLIYNNNNLMPGVPSRFSGSRSGTDFTLTISSLQPEDFATYYCGSRDSSYVGIFGQGTKVEIK
B8: DA21 (antibody, V domains shown)
VH: EVQLVESGGGLVQPGGSLRLSCAASGFTFSSFNMLWVRQAPGKGLEWVAGIGKSDRYTGYGSAVKGRFTISRDDSKSTVYLQMNSLRAEDTAVYYCVRDAGSGCGSGGWTGACIDTWGQGTLVTVSS
VL: DIQMTQSPSSLSASVGDRVTITCSGGDSYAGSYYYGWYQQKPGKAPKTLIYNNNNRPSGVPSRFSGSRSGTDFTLTISSLQPEDFATYYCGSRDSSGAGGFGQGTKVEIK
B9: DA13 (antibody, V domains shown)
VH: EVQLVESGGGLVQPGGSLRLSCAASGFTFSSFNMLWVRQAPGKGLEWVAGIGKSDRYTGYGSAVKGRFTISRDTSKNTAYLQMNSLRAEDTAVYYCSRDAGSGCGSGGWTGACIDTWGQGTLVTVSS
VL: DIQMTQSPSSLSASVGDRVTITCSGGDSYAGSYYYGWYQQKPGKAPKTLIYNNNNRPSGVPSRFSGSRSGTDFTLTISSLQPEDFATYYCGSRDSAGMGAFGQGTKVEIK
B10: DA1 (antibody, V domains shown)
VH: EVQLVESGGGLVQPGGSLRLSCAASGFTFSSFNMLWVRQAPGKGLEWVAGIGKSDRYTGYGSAVKGRFTISRDDSKSTVYLQMNSLRAEDTAVYYCVRDAGSGCGSGGWTGACIDTWGQGTLVTVSS
VL: DIQMTQSPSSLSASVGDRVTITCSGGDSYAGSYYYGWYQQKPGKAPKTLIYNNNNRPSGVPSRFSGSTSGTDFTLTISSLQPEDFATYYCGSRDSSYVGIFGQGTKVEIK
B11: DA7 (antibody, V domains shown)
VH: EVQLVESGGGLVQPGGSLRLSCAASGFTFSSFNMLWVRQAPGKGLEWVAGIGKSDRYTGYGSAVKGRFTISRDDSKSTVYLQMNSLRAEDTAVYYCSRDAGSGCGSGGWTGACIDTWGQGTLVTVSS
VL: DIQMTQSPSSLSASVGDRVTITCSGGDSYAGSYYYGWYQQKPGKAPKTLIYNNNNRPSGVPSRFSGSTSGTDFTLTISSLQPEDFATYYCGSRDSSYVGIFGQGTKVEIK
B12: DA20 (antibody, V domains shown)
VH: EVQLVESGGGLVQPGGSLRLSCAASGFTFSSFNMLWVRQAPGKGLEWVAGIGKSDRYTGYGSAVKGRFTISRDDSKSTVYLQMNSLRAEDTAVYYCVRDAGSGCGSGGWTGACIDTWGQGTLVTVSS
VL: DIQMTQSPSSLSASVGDRVTITCSGGDSYAGSYYYGWYQQKPGKAPKTLIYNNNNRPSGVPSRFSGSRSGTDFTLTISSLQPEDFATYYCGSRDSAGMGAFGQGTKVEIK
B13: DA14 (antibody, V domains shown)
VH: EVQLVESGGGLVQPGGSLRLSCAASGFTFSSFNMLWVRQAPGKGLEWVAGIGKSDRYTGYGSAVKGRFTISRDTSKNTAYLQMNSLRAEDTAVYYCSRDAGSGCGSGGWTGACIDTWGQGTLVTVSS
VL: DIQMTQSPSSLSASVGDRVTITCSGGDSYAGSYYYGWYQQKPGKAPKTLIYNNNNKAKGVPSRFSGSRSGTDFTLTISSLQPEDFATYYCGSRDSSYVGIFGQGTKVEIK
B14: DA35 (antibody, V domains shown)
VH: AVTLDESGGGLQTPGGGLSLVCKGSGFTFSSFNMLWVRQAPGKGLEWVAGIGKSDRYTGYGSAVKGRATISRDDGQSTARLQMNSLRAEDTAVYYCVKDAGSGCGSGGWTGACIDTWGHGTEVIVSS
VL: LTQPSSVSANLGGTVEITCSGGDSYAGSYYYGWYQQKAPGSAPVTVIYNNNNRPSNIPSRFSGSTSGSTATLTITGVQAEDEATYFCGSRDSSYVGIFGAGTTLTVL
B15: DA25 (antibody, V domains shown)
VH: AVTLDESGGGLQTPGGGLSLVCKGSGFTFSSFNMLWVRQAPGKGLEWVAGIGKSDRYTGYGSAVKGRATISRDDGQSTVYLQMNSLRAEDTGTYYCVKDAGSGCGSGGWTGACIDTWGHGTEVIVSS
VL: LTQPSSVSANLGGTVEITCSGGDSYAGSYYYGWYQQKAPGSAPVTVIYNNNNRPSNIPSRFSGSTSGSTATLTITGVQAEDEAVYFCGSRDSSYVGIFGAGTTLTVL
B16: DA24 (antibody, V domains shown)
VH: AVTLDESGGGLQTPGGGLSLVCKGSGFTFSSFNMLWVRQAPGKGLEWVAGIGKSDRYTGYGSAVKGRATISRDDGQSTVRLQLNNLRAEDTGTYYCVKDAGSGCGSGGWTGACIDTWGHGTEVIVSS
VL: LTQPSSVSANLGGTVEITCSGGDSYAGSYYYGWYQQKAPGSAPVTVIYNNNNRPSNIPSRFSGSTSGSTATLTITGVQAEDEATYYCGSRDSSYVGIFGAGTTLTVL
B17: DA32 (antibody, V domains shown)
VH: AVTLDESGGGLQTPGGGLSLVCKGSGFTFSSFNMLWVRQAPGKGLEWVAGIGKSDRYTGYGSAVKGRATISRDDGQSTVRLQLNNLRAEDTAVYYCVKDAGSGCGSGGWTGACIDTWGHGTEVIVSS
VL: LTQPSSVSANLGGTVEITCSGGDSYAGSYYYGWYQQKAPGSAPVTVIYNNNNRPSNIPSRFSGSTSGSTATLTITGVQAEDEAVYFCGSRDSSYVGIFGAGTTLTVL
B18: DA27 (antibody, V domains shown)
VH: AVTLDESGGGLQTPGGGLSLVCKGSGFTFSSFNMLWVRQAPGKGLEWVAGIGKSDRYTGYGSAVKGRATISRDDGQSTVRLQLNNLRAEDTGTYYCVKDAGSGCGSGGWTGACIDTWGHGTEVIVSS
VL: LTQPSSVSANLGGTVEITCSGGDSYAGSYYYGWYQQKAPGSAPVTVIYNNNNRPSNIPSRFSGSTSGSTATLTITGVQAEDEATYFCGSRDSSYVGIFGAGTTLTVL
B19: DA34 (antibody, V domains shown)
VH: AVTLDESGGGLQTPGGGLSLVCKGSGFTFSSFNMLWVRQAPGKGLEWVAGIGKSDRYTGYGSAVKGRATISRDDGQSTAYLQMNSLRAEDTAVYYCVKDAGSGCGSGGWTGACIDTWGHGTEVIVSS
VL: LTQPSSVSANLGGTVEITCSGGDSYAGSYYYGWYQQKAPGSAPVTVIYNNNNRPSNIPSRFSGSTSGSTATLTITGVQAEDEATYYCGSRDSSYVGIFGAGTTLTVL

These binders were tested against human DR5 (human) (assay: SPR (BIAcore X100), human DR5 on CM5 chip, IgG injected, 1:1 Langmuir model).
For B1, the koff was less than 1e-05 s⁻¹ and the kon was 4.9e+06 M⁻¹ s⁻¹.
Binder B2 has a Kd of less than 5.3 pM and a kon of 1.9e+06 M⁻¹ s⁻¹.
For B3, the Kd was 7 pM, the koff was 1.6e-05 s⁻¹ and the kon was 2.3e+06 M⁻¹ s⁻¹.
B4 showed a Kd of 0.1 pM, a koff of 1.2e-07 s⁻¹ and a kon of 1.2e+06 M⁻¹ s⁻¹.
With B5 the Kd was 26.1 pM, the koff was 5.53e-05 s⁻¹ and the kon was 2.11e+06 M⁻¹ s⁻¹.
For B6, the Kd was 0.53 pM, the koff was 4.2e-06 s⁻¹ and the kon was 7.8e+06 M⁻¹ s⁻¹.
For B7, the Kd was 12.7 pM, the koff was 2.99e-05 s⁻¹ and the kon was 2.37e+06 M⁻¹ s⁻¹.
With B8 the Kd was 6.43 pM, the koff was 7.17e-06 s⁻¹ and the kon was 1.11e+06 M⁻¹ s⁻¹.
B9 gave a Kd of 11.2 pM, a koff of 2.94e-05 s⁻¹ and a kon of 2.62e+06 M⁻¹ s⁻¹.
With B10 the Kd was less than 2 pM, the koff was less than 1e-05 s⁻¹ and the kon was 4.9e+06 M⁻¹ s⁻¹.
B11 was tested, and the Kd was 1.9 pM, the koff was 2.9e-06 s⁻¹ and the kon was 1.4e+06 M⁻¹ s⁻¹.
B12 showed a Kd of 12 pM, a koff of 1.21e-05 s⁻¹ and a kon of 1e+06 M⁻¹ s⁻¹.
B13 gave a Kd of 23.5 pM, a koff of 0.0001 s⁻¹ and a kon of 4.27e+06 M⁻¹ s⁻¹.
B14 showed a Kd of 80.1 pM, a koff of 9.12e-05 s⁻¹ and a kon of 1.13e+06 M⁻¹ s⁻¹.
B15 showed a Kd of 1.62 pM, a koff of 1.71e-06 s⁻¹ and a kon of 1.05e+06 M⁻¹ s⁻¹.
B16 gave a Kd of 1.02 pM, a koff of 1.23e-06 s⁻¹ and a kon of 1.2e+06 M⁻¹ s⁻¹.
B17 gave a Kd of 75.1 pM, a koff of 8.59e-05 s⁻¹ and a kon of 1.14e+06 M⁻¹ s⁻¹.
B18 was tested, and the Kd was 1.92 pM, the koff was 2.24e-06 s⁻¹ and the kon was 1.17e+06 M⁻¹ s⁻¹.
B19 was tested, and the Kd was 94.2 pM, the koff was 9.5e-05 s⁻¹ and the kon was 1e+06 M⁻¹ s⁻¹.
